Test results as given in patent publication US20160145322A1 (CRUCELL HOLLAND B V, published 2016).

T1: Recombinant RSV attachment protein (G protein) corresponding to RSV B/B1 (Respiratory syncytial virus B/B1, UniProt O36633 65-299)
T1 construct: also called RSV Gb; Gb
T1 sequence: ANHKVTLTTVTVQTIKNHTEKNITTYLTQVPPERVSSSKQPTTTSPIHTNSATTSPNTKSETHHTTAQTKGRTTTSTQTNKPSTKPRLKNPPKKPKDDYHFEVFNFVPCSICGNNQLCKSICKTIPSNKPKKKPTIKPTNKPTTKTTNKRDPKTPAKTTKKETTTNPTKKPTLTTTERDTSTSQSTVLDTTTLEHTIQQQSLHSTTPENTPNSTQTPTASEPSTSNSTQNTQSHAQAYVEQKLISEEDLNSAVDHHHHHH

T2: Sym-1706 (RSV G central conserved domain (CCD) peptide, type A 145-184) (Respiratory syncytial virus type A, N-terminal biotin)
T2 construct: Synthetic peptide, C-terminally truncated against Sym-1705
T2 peptide: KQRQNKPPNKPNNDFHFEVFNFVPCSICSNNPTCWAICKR

T3: Sym-1789 (RSV-G type B central region peptide 145-184) (Respiratory syncytial virus type B, N-terminal biotin)
T3 construct: Synthetic peptide, C-terminally truncated against Sym-1788
T3 peptide: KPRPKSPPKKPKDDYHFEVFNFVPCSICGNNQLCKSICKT

T4: Sym-1705 (RSV-G type A central region peptide 145-201) (Respiratory syncytial virus type A, not fully specified; N-terminal biotin)
T4 construct: Synthetic peptide
T4 peptide: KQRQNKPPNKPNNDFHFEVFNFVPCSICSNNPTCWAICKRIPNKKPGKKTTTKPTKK

T5: Sym-1788 (RSV-G type B central region peptide 145-201) (Respiratory syncytial virus type B, N-terminal biotin)
T5 construct: Synthetic peptide
T5 peptide: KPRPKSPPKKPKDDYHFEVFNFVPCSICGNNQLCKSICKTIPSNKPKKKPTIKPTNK

T6: G protein of RSV A/Long (ATCC Cat. No. VR-26), on virus (Respiratory syncytial virus A/Long, UniProt P20895 1-298)
T6 sequence (looked up): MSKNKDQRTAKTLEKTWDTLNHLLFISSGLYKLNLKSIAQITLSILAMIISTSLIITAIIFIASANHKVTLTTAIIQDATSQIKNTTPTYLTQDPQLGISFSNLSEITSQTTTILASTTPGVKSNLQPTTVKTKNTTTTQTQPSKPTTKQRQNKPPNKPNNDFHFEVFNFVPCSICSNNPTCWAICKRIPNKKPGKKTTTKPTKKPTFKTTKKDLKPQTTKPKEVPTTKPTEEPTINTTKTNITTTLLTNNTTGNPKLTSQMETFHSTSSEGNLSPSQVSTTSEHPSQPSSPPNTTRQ

B1: CB079.1 (antibody, V domains shown)
VH: EVQLVESGGDLVQPGGSLRLSCSASGFVFTSYSFHWVRQAPGKGLEYVSSVSADGGSTYYADSVRGRFLISRDNSKNTLSLQMSSLRPDDTALYYCVPQPSLLWFGDLRSWGQGTLVTVSS
VL: DIVMTQSPLSLPVTPGEPASISCRSSQSLLHSNGYNYLDWYLQKPGQSPQLLIYLSSNRASGVPDRFSGSGSGTDFTLKISRVEAEDIGIYYCMQSLQTLTFGQGTRLEIK
notes: Tested as human IgG from the pCP9-kappa vector
B2: CB076.2L (antibody, V domains shown)
VH: QVQLVQSGAEVKKPGSSVKVSCKTSGDTFSNYVVSWVRQAPGQGLEWMGGIIPMFGTTNYAQRFQGRVTISADESTSTAYMEMSSLKSEDTAVYYCARDRYYEVRAGGKVLNTYYYMDVWGKGTTVTVSS
VL: SSELTQDPAVSVALGHTVRITCQGDSLRSYYTNWYQQKPGQAPVLVIFGEDNRPSGIPDRFSGSSSGDTASLTITGTQAEDEADYYCNSRDSSGNLWVFGGGTKLTVL
notes: Tested as human IgG from the pCP9-lambda vector
B3: CB071.1L (antibody, V domains shown)
VH: QVQLVQSGAEVKKPGSSVRVSCKASGGTFSRYVITWVRQAPGQGLEWMGGSIPIIDTSTYAQKFQDRVTITADKSTSTVYLELSSLRPEDTAIYYCAKVFFFSNSSGPPTEGPAFDVWGQGTMVTVSS
VL: SYELTQPPSVSVSPGQTASITCSGHELGDKYVSWYQQKPGQSPVLLIYQDTNRPAGIPERFSGSNSGSTAFLTISATQAMDEADYYCQAWDNSHVVFGGGTKLTVL
notes: as for B2
B4: CB073.1L (antibody, V domains shown)
VH: QVQLVESGGGVVQPGRSLRLSCAASGFTFYNYAVHWVRQAPGKGLEWVAVISHDGVNKDYADSVKGRITLSRDNSKNTVYLQLNSLRPEDTAVYYCARDRSYYFGGSVFHLYFDYWGQGTLVTVSS
VL: QSVLTQPPSVSGAPGQRVIISCTGSSSNIGAGHDVHWYQQLPGTAPRLLIYANTNRPSGVPDRFSASKSGNSASLVITGLQAEDEADYFCQSHDSSLSGVLFGGGTKLTVL
notes: as for B2
B5: CB017.3L (antibody, V domains shown)
VH: QVQLVESGGGVVQPGGSLRLSCEASGFMFSVYAIHWVRQAPGKGLEWVAVIWHDGSNKYYADSVKGRFTISRDNSKDTMYLQMKTLRVDDTAVYYCARDPIVGSKTDGMDVWGQGTTVTVSS
VL: SYELTQPPSVSVSPGQTARITCSGDALADQYAYWYQQKPGQAPVMVIFKDNERPSGIPERFSGSSSGTTVTLTVSGVQSEDEADYYCQSVDSSGTYWMFGGGTKLTVL
notes: Tested as human IgG expressed in 293-F cells from the pCP9-lambda vector
B6: CB017.5L (antibody, V domains shown)
VH: QVQLVESGGGVVQPGRSLRLSCSASGFTFSVYAMHWVRQAPGQGLEWVAIIWYDGSNKYYADSVKGRFTISRDNSKETLYLQMNSLRVEDTAVYYCARDPIVGHTRDGLDVWGQGTTVTVSS
VL: SYELTQPPSVSVSPGQTARVTCSGDAMAEQYTYWYQQKPGQAPVLIIFKDTERPSGIPERFSGSSSGTTVTLTISGVQTEDEADYYCQSTDSSGTSWVFGGGTKLTVL
notes: as for B2
B7: CB047.1 (antibody, V domains shown)
VH: EVQLVESGGGLVQPGGSLRLSCAASGFSFSNYAMSWVRQAPGKGLEWVSDISGSGNSTNFADSVKGRFTISRDNSKNTLYLQMSSLRAEDTAVYYCAKFRVPTYCVNGICYQGLPGFDIWGQGTMVTVSS
VL: DIQMTQSPSSLSASVGDRVTITCQASQDISDYLNWYQQKPGKAPKLLIYDASNLETGVPSRFSASGSGTDFTFTISSLQPEDIATYYCQHYHNLPPLFGGGTKVEIK
notes: as for B1
B8: CB047.2 (antibody, V domains shown)
VH: EVQLVESGGGLVQPGGSLRLSCAASGFNFSNYAMSWVRQAPGKGLEWVSDISSSGKTTNSADSVKGRFTISRDNSKNTLFLQMSSLRADDTAVYYCAKFRVPTYCVNGICYQGLPGFDIWGQGTMVTVSS
VL: DIQMTQSPSSLSASVGDRVTITCQASQDISDYLNWYQQKPGKAPKLLIYDASNLETGVPSRFSASGSGTDFTFTISSLQPEDFATYYCQHYHNLPPLFGGGTKVEIK
notes: as for B1
B9: CB072.1L (antibody, V domains shown)
VH: QLQLQESGPGLVKPSETLSLTCTVSGGSISSNIHYWAWIRQTPGKGLEWIGYMFYGGVAFYNPSLKSRVAISVDTSKNQFSLRLTSASAADTAVYYCARVLVASTNWFDPWGQGTLVTVSS
VL: SYVLTQPPSVSVAPGGTARITCGGDNIGTKGVHWYQQKPGQAPVLVMYYNSDRPTGVPERFSGSNSGNTATLTISRLEAGDEADYYCHVWDSSGSDHVEVFGGGTKLTVL
notes: Tested as human IgG from the pCP9-lambda vector; also called CB072.IL
B10: CB065.1 (antibody, V domains shown)
VH: QVQLVESGGGVVQPGRSLRLSCAASGFTFSNYGMHWVRQAPGKGLEWVTIISYDESTTLYADSVKGRFTISRDNSKNTVYLQMNSLRPEDTAVYYCARDHFDPSGYFWYFDLWGRGTLVTVSS
VL: DIVMTQSPLSLSVTPGQPASISCKSSQSLLQRDGKTYLYWYLQKPGQSPQLLIYEVSSRFSGVPDRFSGSGSGTDFTLKISRVEAEDVGVYYCMQGIRLPRTFGQGTKVEIK
notes: as for B1
B11: CB028.1 (antibody, V domains shown)
VH: QVQLVQSGAEVKKPGASVQVSCKTSGYTFSSYGISWVRQAPGQGPEWMGWISTHIGTTNYAQKLQGRVTMTTDTSTTTAYMELRSLRSDDTAVYYCARDLAKWYCSGDTCFCSGGRCYSDHWGQGTLVTVSS
VL: DIQMTQSPSSLSASVGDRVTITCRASQSINDCLNWYQQKPGQAPKLLISAASNLQSGVPSRFSGSGSETDFTLTISSLQPEDFAAYYCQQSFSTPLTFGGGTKVEIK
notes: as for B1

Experiments:
[1] = target: G protein of RSV B/18537 (ATCC Cat. No. VR-1580), on virus (Respiratory syncytial virus B/18537); experiment: cell-based or functional assay
[2] = target: T1, Recombinant RSV attachment protein (G …); experiment: ELISA, coated recombinant protein
[3] = target: T2, Sym-1706 (RSV G central conserved …); experiment: ELISA, biotinylated peptide on avidin plate
[4] = target: T3, Sym-1789 (RSV-G type B central region …); experiment: ELISA, biotinylated peptide on avidin plate
[5] = target: T4, Sym-1705 (RSV-G type A central region …); experiment: ELISA, biotinylated peptide on avidin plate
[6] = target: T5, Sym-1788 (RSV-G type B central region …); experiment: ELISA, biotinylated peptide on avidin plate
[7] = target: T6, G protein of RSV A/Long (ATCC Cat. No. …); experiment: cell-based or functional assay
[8] = target: T2, Sym-1706 (RSV G central conserved …); experiment: ELISA, antibody titrated on biotinylated peptide on avidin plate
[9] = target: T4, Sym-1705 (RSV-G type A central region …); experiment: as above
[10] = target: T2, Sym-1706 (RSV G central conserved …); experiment: Octet Red384, streptavidin tips with biotinylated peptide
Description: (§1) Binding of the mAbs to the RSV G peptides was also determined using Streptavidin sensor tips on the Octet Red384 (ForteBio).

[11] = target: T4, Sym-1705 (RSV-G type A central region …); experiment: as above
Description: as §1

| Binder | Neutralization IC50 (ng/mL), plaque reduction assay, RSV B/18537 [1] [ng/mL] | binding result [2] | binding result [3] | binding result [4] | binding result [5] | binding result [6] | Neutralization IC50, plaque reduction assay, RSV A/Long [7] [ng/mL] | IC50 [8] [ng/mL] | IC50 [9] [ng/mL] | Binding (Octet) [RU] [10] [RU] | Binding (Octet) [RU] [11] [RU] |
| --- | --- | --- | --- | --- | --- | --- | --- | --- | --- | --- | --- |
| B1 | 4.4 | binds | binds | binds | binds | binds | – | – | – | – | – |
| B2 | 5.6 | – | binds | binds | binds | – | – | – | – | – | – |
| B3 | 5.4 | – | binds | binds | binds | – | – | – | – | – | – |
| B4 | 2.9 | – | binds | binds | binds | – | – | – | – | – | – |
| B5 | 2 | – | binds | – | binds | – | – | – | – | – | – |
| B6 | 3.8 | – | – | – | – | – | 3.5 | ~20 | ~20 | -0.02 | 3.17 |
| B7 | 4.7 | – | binds | binds | binds | – | – | – | – | – | – |
| B8 | 8.9 | – | binds | binds | binds | – | – | – | – | – | – |
| B9 | 2.7 | – | binds | binds | binds | – | – | – | – | – | – |
| B10 | 5.1 | binds | binds | binds | binds | binds | – | – | – | – | – |
| B11 | 16.3 | binds | binds | binds | binds | binds | – | – | – | – | – |
